Consider 6 substances from the supplement of paper PMC5998384.

Data set [1] concerns HeLa Kyoto. The data set can be described thus: solubility change mitosis vs G1/S (difference of NP-40 vs SDS log2 ratios) (log2 ratio difference); higher = more soluble in mitosis.
Data set [2] deals with HeLa Kyoto. The data set can be described thus: solubility in G1/S (NP-40 vs SDS abundance) (log2 ratio); higher = more soluble. The settings on record: cell cycle stage: G1/S.
In data set [3] the test system is HeLa Kyoto. The data set can be described thus: thermal stability score vs G1/S (z-score of summed log2 fold changes over temperatures); higher = more thermally stable than in G1/S.
Data set [4] deals with HeLa Kyoto. The data set can be described thus: melting temperature (median over replicates), in situ; higher = more thermally stable.
The mark [5] stands for this setting: cell cycle stage: early G1 (4.5 h after nocodazole release).
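For melting temperature (median over replicates), in situ in this document: HeLa Kyoto cells synchronized by double thymidine or nocodazole block, proteins quantified by TMT10plex mass spectrometry, three independent biological replicates.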
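For solubility change mitosis vs G1/S (difference of NP-40 vs SDS log2 ratios) in this document: synchronized HeLa Kyoto cells (double thymidine block for G1/S, nocodazole release for mitosis), protein amounts in NP-40 versus SDS lysates quantified by mass spectrometry, three biological replicates.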
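For solubility in G1/S (NP-40 vs SDS abundance) in this document: HeLa Kyoto cells arrested at G1/S by double thymidine block, proteins quantified by TMT10plex mass spectrometry in mild NP-40 versus SDS extracts, three biological replicates.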
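For thermal stability score vs G1/S (z-score of summed log2 fold changes over temperatures) in this document: synchronized HeLa Kyoto cells, proteins quantified by TMT10plex mass spectrometry, three biological replicates, mitosis taken 0.5 h after nocodazole release, G1/S directly after double thymidine block.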

In the case of “MGSRIKQNPETTFEVYVEVAYPRTGGTLSDPEVQRQFPEDYSDQEVLQTLTKFCFPFYVDSLTVSQVGQNFTFVLTDIDSKQRFGFCRLSSGAKSCFCILSYLPWFEVFYKLLNILADYTTKRQENQWNELLETLHKLPIPDPGVSVHLSVHSYFTVPDTRELPSIPENRNLTEYFVAVDVNNMLHLYASMLYERRILIICSKLSTLTACIHGSAAMLYPMYWQHVYIPVLPPHLLDYCCAPMPYLIGIHLSLMEKVRNMALDDVVILNVDTNTLETPFDDLQSLPNDVISSLKNRLKKVSTTTGDGVARAFLKAQAAFFGSYRNALKIEPEEPITFCEEAFVSHYRSGAMRQFLQNATQLQLFKQFIDGRLDLLNSGEGFSDVFEEEINMGEYAGSDKLYHQWLSTVRKGSGAILNTVKTKANPAMKTVYKFAKDHAKMGIKEVKNRLKQKDIAENGCAPTPEEQLPKTAPSPLVEAKDPKLREDRRPITVHFGQVRPPRPHVVKRPKSNIAVEGRRTSVPSPEQPQPYRTLRESDSAEGDEAESPEQQVRKSTGPVPAPPDRAASIDLLEDVFSNLDMEAALQPLGQAKSLEDLRAPKDLREQPGTFDYQRLDLGGSERSRGVTVALKLTHPYNKLWSLGQDDMAIPSKPPAASPEKPSALLGNSLALPRRPQNRDSILNPSDKEEVPTPTLGSITIPRPQGRKTPELGIVPPPPIPRPAKLQAAGAALGDVSERLQTDRDRRAALSPGLLPGVVPQGPTELLQPLSPGPGAAGTSSDALLALLDPLSTAWSGSTLPSRPATPNVATPFTPQFSFPPAGTPTPFPQPPLNPFVPSMPAAPPTLPLVSTPAGPFGAPPASLGPAFASGLLLSSAGFCAPHRSQPNLSALSMPNLFGQMPMGTHTSPLQPLGPPAVAPSRIRTLPLARSSARAAETKQGLALRPGDPPLLPPRPPQGLEPTLQPSAPQQARDPFEDLLQKTKQDVSPSPALAPAPDSVEQLRKQWETFE [DENND1A]”, the “solubility change mitosis (log2)” value in the data set on HeLa Kyoto [1] is -0.0536. The “solubility in G1/S (log2)” value in the data set on HeLa Kyoto [2] is 0.079. In addition, the results for the thermal stability score in the data set on HeLa Kyoto [3] (setting [5]) and in the data set on HeLa Kyoto [3] (cell cycle stage: mitosis) were 0.0881 and 1.02, respectively. In the data set with HeLa Kyoto [4] (cell cycle stage: mitosis), this substance gave a melting temperature of 53.6 °C.
Turning to “MGSSATEIEELENTTFKYLTGEQTEKMWQRLKGILRCLVKQLERGDVNVVDLKKNIEYAASVLEAVYIDETRRLLDTEDELSDIQTDSVPSEVRDWLASTFTRKMGMTKKKPEEKPKFRSIVHAVQAGIFVERMYRKTYHMVGLAYPAAVIVTLKDVDKWSFDVFALNEASGEHSLKFMIYELFTRYDLINRFKIPVSCLITFAEALEVGYSKYKNPYHNLIHAADVTQTVHYIMLHTGIMHWLTELEILAMVFAAAIHDYEHTGTTNNFHIQTRSDVAILYNDRSVLENHHVSAAYRLMQEEEMNILINLSKDDWRDLRNLVIEMVLSTDMSGHFQQIKNIRNSLQQPEGIDRAKTMSLILHAADISHPAKSWKLHYRWTMALMEEFFLQGDKEAELGLPFSPLCDRKSTMVAQSQIGFIDFIVEPTFSLLTDSTEKIVIPLIEEASKAETSSYVASSSTTIVGLHIADALRRSNTKGSMSDGSYSPDYSLAAVDLKSFKNNLVDIIQQNKERWKELAAQEARTSSQKCEFIHQ [PDE1A]”, the “solubility change mitosis (log2)” value in the data set with HeLa Kyoto [1] is -0.0985. The “solubility in G1/S (log2)” value with HeLa Kyoto [2] was -0.162. Besides, the thermal stability score came out at 1.43 in the data set with HeLa Kyoto [3] (setting [5]) and 2.27 in the data set with HeLa Kyoto [3] (cell cycle stage: mitosis). Further, the melting temperature in the data set on HeLa Kyoto [4] (cell cycle stage: G1/S) is 55.2 °C; with HeLa Kyoto [4] (cell cycle stage: mitosis) it was 54.1 °C.
Turning to MGST3, the “solubility change mitosis (log2)” value with HeLa Kyoto [1] was determined as 0.0779. Besides, the “solubility in G1/S (log2)” value in the data set on HeLa Kyoto [2] was -0.272. In addition, the thermal stability score with HeLa Kyoto [3] (setting [5]) was -2.44; with HeLa Kyoto [3] (cell cycle stage: mitosis), -4.93. Moreover, the results for the melting temperature in the data set on HeLa Kyoto [4] (cell cycle stage: G1/S) and with HeLa Kyoto [4] (cell cycle stage: mitosis) were 56.3 °C and 55.7 °C, respectively.
In the case of “MGSVLGLCSMASWIPCLCGSAPCLLCRCCPSGNNSTVTRLIYALFLLVGVCVACVMLIPGMEEQLNKIPGFCENEKGVVPCNILVGYKAVYRLCFGLAMFYLLLSLLMIKVKSSSDPRAAVHNGFWFFKFAAAIAIIIGAFFIPEGTFTTVWFYVGMAGAFCFILIQLVLLIDFAHSWNESWVEKMEEGNSRCWYAALLSATALNYLLSLVAIVLFFVYYTHPASCSENKAFISVNMLLCVGASVMSILPKIQESQPRSGLLQSSVITVYTMYLTWSAMTNEPETNCNPSLLSIIGYNTTSTVPKEGQSVQWWHAQGIIGLILFLLCVFYSSIRTSNNSQVNKLTLTSDESTLIEDGGARSDGSLEDGDDVHRAVDNERDGVTYSYSFFHFMLFLASLYIMMTLTNWYRYEPSREMKSQWTAVWVKISSSWIGIVLYVWTLVAPLVLTNRDFD [SERINC1]”, the “solubility change mitosis (log2)” value in the data set on HeLa Kyoto [1] was -0.141. The “solubility in G1/S (log2)” value in the data set with HeLa Kyoto [2] is -0.167. Moreover, the thermal stability score with HeLa Kyoto [3] (setting [5]) is -4.14; with HeLa Kyoto [3] (cell cycle stage: mitosis) it was -5.22. In addition, the values for the melting temperature in the data set with HeLa Kyoto [4] (cell cycle stage: G1/S) and in the data set with HeLa Kyoto [4] (cell cycle stage: mitosis) were 56.2 °C and 60.6 °C, respectively.
As for “MGTARWLALGSLFALAGLLEGRLVGEEEAGFGECDKFFYAGTPPAGLAADSHVKICQRAEGAERFATLYSTRDRIPVYSAFRAPRPAPGGAEQRWLVEPQIDDPNSNLEEAINEAEAITSVNSLGSKQALNTDYLDSDYQRGQLYPFSLSSDVQVATFTLTNSAPMTQSFQERWYVNLHSLMDRALTPQCGSGEDLYILTGTVPSDYRVKDKVAVPEFVWLAACCAVPGGGWAMGFVKHTRDSDIIEDVMVKDLQKLLPFNPQLFQNNCGETEQDTEKMKKILEVVNQIQDEERMVQSQKSSSPLSSTRSKRSTLLPPEASEGSSSFLGKLMGFIATPFIKLFQLIYYLVVAILKNIVYFLWCVTKQVINGIESCLYRLGSATISYFMAIGEELVSIPWKVLKVVAKVIRALLRILCCLLKAICRVLSIPVRVLVDVATFPVYTMGAIPIVCKDIALGLGGTVSLLFDTAFGTLGGLFQVVFSVCKRIGYKVTFDNSGEL [ENDOD1]”, the “solubility change mitosis (log2)” value in the data set on HeLa Kyoto [1] was -0.0882. Moreover, the “solubility in G1/S (log2)” value with HeLa Kyoto [2] was -0.0976. Besides, the thermal stability score in the data set on HeLa Kyoto [3] (setting [5]) is 1.24; in the data set on HeLa Kyoto [3] (cell cycle stage: mitosis), -2.33. The results for the melting temperature with HeLa Kyoto [4] (cell cycle stage: G1/S) and in the data set on HeLa Kyoto [4] (cell cycle stage: mitosis) were 57.6 °C and 56.6 °C, respectively.
As to “MGTDSRAAKALLARARTLHLQTGNLLNWGRLRKKCPSTHSEELHDCIQKTLNEWSSQINPDLVREFPDVLECTVSHAVEKINPDEREEMKVSAKLFIVESNSSSSTRSAVDMACSVLGVAQLDSVIIASPPIEDGVNLSLEHLQPYWEELENLVQSKKIVAIGTSDLDKTQLEQLYQWAQVKPNSNQVNLASCCVMPPDLTAFAKQFDIQLLTHNDPKELLSEASFQEALQESIPDIQAHEWVPLWLLRYSVIVKSRGIIKSKGYILQAKRRGS [GCLM]”, the “solubility change mitosis (log2)” value in the data set on HeLa Kyoto [1] was -0.0843. Further, the “solubility in G1/S (log2)” value in the data set on HeLa Kyoto [2] came out at 0.229. Further, the thermal stability score in the data set on HeLa Kyoto [3] (setting [5]) came to 0.373; in the data set with HeLa Kyoto [3] (cell cycle stage: mitosis), 1.08. Also, the melting temperature in the data set with HeLa Kyoto [4] (cell cycle stage: G1/S) was 48.3 °C; in the data set on HeLa Kyoto [4] (cell cycle stage: mitosis) it was 49 °C.
